These results are taken from publication PMC8060482, “Identification of an Invertase With High Specific Activity for Raffinose Hydrolysis and Its Application in Soymilk Treatment” (Frontiers in Microbiology, 2021).

Holding throughout (experiment): released glucose by glucose oxidase method; Michaelis-Menten fit
Format in all cases: biochemical, Microbacterium trichothecenolyticum

Substrate in series [1]: OC[C@H]1O[C@H](OC[C@H]2O[C@H](OC[C@H]3O[C@H](O[C@]4(CO)O[C@H](CO)[C@@H](O)[C@@H]4O)[C@H](O)[C@@H](O)[C@@H]3O)[C@H](O)[C@@H](O)[C@H]2O)[C@H](O)[C@@H](O)[C@H]1O
The conditions noted are these: 50 mM citrate-phosphate pH 6.5, 35 °C, 5 min.

Substrate in series [2]: OC[C@H]1O[C@H](OC[C@H]2O[C@H](O[C@]3(CO)O[C@H](CO)[C@@H](O)[C@@H]3O)[C@H](O)[C@@H](O)[C@@H]2O)[C@H](O)[C@@H](O)[C@H]1O
As to conditions: 50 mM citrate-phosphate pH 6.5, 35 °C, 5 min.

Substrate in series [3]: OC[C@H]1O[C@@](CO)(O[C@H]2O[C@H](CO)[C@@H](O)[C@H](O)[C@H]2O)[C@@H](O)[C@@H]1O
The conditions noted are these: 50 mM citrate-phosphate pH 6.5, 35 °C, 5 min, enzyme printed as rInvDz13.

B1: InvDz13 (Microbacterium trichothecenolyticum) (protein)
chain: APVAPAAPELQDGPQPTAHTQQAYAPEDDFTAKWTRADARQLKRLSDPTAGSKQNSMPTELTMPAVAQDFPDMSNEQVWVWDSWPLTDENANQYSVNGQEIIFSLVADRNLVFDERHVFAKIGYFYRPAGVPADERPENGGWTYGGLVFDEGVTGKIFPDQSYSHQTQWSGSARISKGGQIKLFFTDVAFYRNEDGSNRKPYDPRIALSVGKVHANKNGVKLTGFDKVTDLLQADGTYYQTGAQNEFFNFRDPFTFEDPAHPGETYMVFEGNSAMPRETATCNEEDLGYREGDPFAESVEQVNASGATYQIGNVGLAKAKNKDLTEWEFLPPLLSANCVTDQTERPQIYMKDGKYYLFTISHRGTFANGIDGPEGVYGFVGDGIRSDYQPMNSGSGLALGNPTNLNFAGGQPFAPDFNQPIGHFQAYSHYVMPGGLVQSFIDTVGTEGDFRRGGTLAPTVKIDIDGASSAVDYAYGDGGLGGYADIPANINVNPGGKVTPLP
notes: natively purified from culture supernatant of strain Dz13 (DEAE-Sepharose, Sephacryl S100); precursor 537 aa, predicted signal peptide 1-35 (secreted enzyme); kinetics of sucrose printed once as rInvDz13, but no recombinant expression described
With B1, the Km in series [1] came out at 65.2 ± 3.07 mM; in series [2], 14.2 ± 0.7 mM; in series [3] it was 4.5 ± 0.2 mM. Further, the kcat is given as 2368.3 ± 7.1 s^–1 in series [1], 3944 ± 15.3 s^–1 in series [2] and 504 ± 0.1 s^–1 in series [3].
